In the supplement of paper PMC10567573:

B1: SCNN1D (parent)
chain: FYRLYQDLETHRLPCTSRCPRPCR

Variants of: B1
Assay: protein stability index of a GFP-peptide fusion (GPS, HEK-293T) (PSI 1-6); higher = more stable
Conditions: c terminus: a fixed tail appended
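Further: lentivirally expressed fusions sorted by FACS into six bins by GFP to DsRed ratio, PSI derived from sequencing read proportions per bin multiplied by bin number.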

Variant | protein stability index
FYRLYQQLETHRLPCTSRCPRPCR [D7Q] | 1.48
FYRLYQRLETHRLPCTSRCPRPCR [D7R] | 2.89
FYRLYQSLETHRLPCTSRCPRPCR [D7S] | 1.98
FYRLYQTLETHRLPCTSRCPRPCR [D7T] | 2.09
FYRLYQVLETHRLPCTSRCPRPCR [D7V] | 1.98
FYRLYQWLETHRLPCTSRCPRPCR [D7W] | 3
FYRLYQYLETHRLPCTSRCPRPCR [D7Y] | 1.66
FYRLYQDAETHRLPCTSRCPRPCR [L8A] | 2.38
FYRLYQDCETHRLPCTSRCPRPCR [L8C] | 2.08
FYRLYQDDETHRLPCTSRCPRPCR [L8D] | 2.79
FYRLYQDEETHRLPCTSRCPRPCR [L8E] | 2.73
FYRLYQDFETHRLPCTSRCPRPCR [L8F] | 2.58
FYRLYQDGETHRLPCTSRCPRPCR [L8G] | 2.97
FYRLYQDHETHRLPCTSRCPRPCR [L8H] | 2.97
FYRLYQDIETHRLPCTSRCPRPCR [L8I] | 2.41
FYRLYQDKETHRLPCTSRCPRPCR [L8K] | 2.38
FYRLYQDMETHRLPCTSRCPRPCR [L8M] | 2.02
FYRLYQDNETHRLPCTSRCPRPCR [L8N] | 3.07
FYRLYQDPETHRLPCTSRCPRPCR [L8P] | 2.75
FYRLYQDQETHRLPCTSRCPRPCR [L8Q] | 2.11
FYRLYQDRETHRLPCTSRCPRPCR [L8R] | 2.22
FYRLYQDSETHRLPCTSRCPRPCR [L8S] | 2.47
FYRLYQDTETHRLPCTSRCPRPCR [L8T] | 2.09
FYRLYQDVETHRLPCTSRCPRPCR [L8V] | 2.16

Variant | protein stability index
FYRLYQDWETHRLPCTSRCPRPCR [L8W] | 1.7
FYRLYQDYETHRLPCTSRCPRPCR [L8Y] | 1.53
FYRLYQDLATHRLPCTSRCPRPCR [E9A] | 2.06
FYRLYQDLCTHRLPCTSRCPRPCR [E9C] | 1.66
FYRLYQDLDTHRLPCTSRCPRPCR [E9D] | 2.99
FYRLYQDLFTHRLPCTSRCPRPCR [E9F] | 1.46
FYRLYQDLGTHRLPCTSRCPRPCR [E9G] | 1.57
FYRLYQDLHTHRLPCTSRCPRPCR [E9H] | 2.25
FYRLYQDLITHRLPCTSRCPRPCR [E9I] | 2.06
FYRLYQDLKTHRLPCTSRCPRPCR [E9K] | 2.38
FYRLYQDLLTHRLPCTSRCPRPCR [E9L] | 2.8
FYRLYQDLMTHRLPCTSRCPRPCR [E9M] | 2.87
FYRLYQDLNTHRLPCTSRCPRPCR [E9N] | 1.6
FYRLYQDLPTHRLPCTSRCPRPCR [E9P] | 2.05
FYRLYQDLQTHRLPCTSRCPRPCR [E9Q] | 1.83
FYRLYQDLRTHRLPCTSRCPRPCR [E9R] | 1.58
FYRLYQDLSTHRLPCTSRCPRPCR [E9S] | 1.94
FYRLYQDLTTHRLPCTSRCPRPCR [E9T] | 1.65
FYRLYQDLVTHRLPCTSRCPRPCR [E9V] | 2.29
FYRLYQDLWTHRLPCTSRCPRPCR [E9W] | 1.08
FYRLYQDLYTHRLPCTSRCPRPCR [E9Y] | 1.5
FYRLYQDLEAHRLPCTSRCPRPCR [T10A] | 2.27
FYRLYQDLECHRLPCTSRCPRPCR [T10C] | 1.94
FYRLYQDLEDHRLPCTSRCPRPCR [T10D] | 2.82

Variant | protein stability index
FYRLYQDLEEHRLPCTSRCPRPCR [T10E] | 2.31
FYRLYQDLEFHRLPCTSRCPRPCR [T10F] | 1.21
FYRLYQDLEGHRLPCTSRCPRPCR [T10G] | 2.19
FYRLYQDLEHHRLPCTSRCPRPCR [T10H] | 2.34
FYRLYQDLEIHRLPCTSRCPRPCR [T10I] | 2.44
FYRLYQDLEKHRLPCTSRCPRPCR [T10K] | 2.47
FYRLYQDLELHRLPCTSRCPRPCR [T10L] | 2.29
FYRLYQDLEMHRLPCTSRCPRPCR [T10M] | 1.86
FYRLYQDLENHRLPCTSRCPRPCR [T10N] | 2.4
FYRLYQDLEPHRLPCTSRCPRPCR [T10P] | 2.03
FYRLYQDLEQHRLPCTSRCPRPCR [T10Q] | 2.3
FYRLYQDLERHRLPCTSRCPRPCR [T10R] | 2.88
FYRLYQDLESHRLPCTSRCPRPCR [T10S] | 1.6
FYRLYQDLEVHRLPCTSRCPRPCR [T10V] | 1.52
FYRLYQDLEWHRLPCTSRCPRPCR [T10W] | 2.05
FYRLYQDLEYHRLPCTSRCPRPCR [T10Y] | 1.6
FYRLYQDLETARLPCTSRCPRPCR [H11A] | 2.31
FYRLYQDLETCRLPCTSRCPRPCR [H11C] | 2.62
FYRLYQDLETDRLPCTSRCPRPCR [H11D] | 2.24
FYRLYQDLETERLPCTSRCPRPCR [H11E] | 2.31
FYRLYQDLETFRLPCTSRCPRPCR [H11F] | 1.64
FYRLYQDLETIRLPCTSRCPRPCR [H11I] | 1.39
FYRLYQDLETKRLPCTSRCPRPCR [H11K] | 1.96
FYRLYQDLETLRLPCTSRCPRPCR [H11L] | 1.95

Variant | protein stability index
FYRLYQDLETMRLPCTSRCPRPCR [H11M] | 1.74
FYRLYQDLETNRLPCTSRCPRPCR [H11N] | 1.93
FYRLYQDLETPRLPCTSRCPRPCR [H11P] | 2
FYRLYQDLETQRLPCTSRCPRPCR [H11Q] | 2.37
FYRLYQDLETRRLPCTSRCPRPCR [H11R] | 2.48
FYRLYQDLETSRLPCTSRCPRPCR [H11S] | 2.21
FYRLYQDLETTRLPCTSRCPRPCR [H11T] | 2.79
FYRLYQDLETVRLPCTSRCPRPCR [H11V] | 1.98
FYRLYQDLETWRLPCTSRCPRPCR [H11W] | 2.05
FYRLYQDLETYRLPCTSRCPRPCR [H11Y] | 1.97
FYRLYQDLETHALPCTSRCPRPCR [R12A] | 3.03
FYRLYQDLETHCLPCTSRCPRPCR [R12C] | 2.3
FYRLYQDLETHDLPCTSRCPRPCR [R12D] | 2.4
FYRLYQDLETHELPCTSRCPRPCR [R12E] | 2.5
FYRLYQDLETHFLPCTSRCPRPCR [R12F] | 2.41
FYRLYQDLETHGLPCTSRCPRPCR [R12G] | 2.47
FYRLYQDLETHHLPCTSRCPRPCR [R12H] | 3.03
FYRLYQDLETHILPCTSRCPRPCR [R12I] | 1.42
FYRLYQDLETHKLPCTSRCPRPCR [R12K] | 2.37
FYRLYQDLETHLLPCTSRCPRPCR [R12L] | 2.05
FYRLYQDLETHMLPCTSRCPRPCR [R12M] | 2.33
FYRLYQDLETHNLPCTSRCPRPCR [R12N] | 2.22
